The Kd is the equilibrium constant for the complex coming apart. A lower Kd goes with a tighter complex.

This test concerns the target LMP7-His, biotinylated (UniProt P28062). The test can be described thus: BLI. On the technique in general: In BLI a coated tip is dipped into the sample, and binding shifts an interference pattern.

As for “Nef-GST (from UniProt P03406 1-206) (natural protein)”, the Kd amounted to 735 nM and the wavelength shift came to 71.1 pm.

Values taken from doi:10.1101/697946.
